First the molecules themselves.
T1: CD123 (Homo sapiens (Human), UniProt P26951 19-305, limits assumed)
T1 construct: The CD123 construct used in the ELISA is not described; also called CD123-Signal
T1 sequence: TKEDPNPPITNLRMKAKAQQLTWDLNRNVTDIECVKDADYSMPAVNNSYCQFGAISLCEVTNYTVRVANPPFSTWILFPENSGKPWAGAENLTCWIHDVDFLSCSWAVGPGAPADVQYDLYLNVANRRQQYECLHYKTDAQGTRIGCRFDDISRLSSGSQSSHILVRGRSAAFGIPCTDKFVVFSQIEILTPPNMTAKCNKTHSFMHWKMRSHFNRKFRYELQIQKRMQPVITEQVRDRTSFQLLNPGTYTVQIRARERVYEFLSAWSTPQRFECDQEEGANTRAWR

B1: D domain of SEQ ID NO: 476 (designed binder)
chain: MGSWGYFKDDLAWIKGELEALGGSEAELAEFEWFIAVFEEDLQVYKGKGNPEVEALRKEAAAIRDELQAYRHN
B2: D domain of SEQ ID NO: 467 (designed binder)
chain: MGSWFYFKDDLADINYMLEALGGSEAELAMFEDDIAGFELTLLKYKGKGNPEVEALRKEAAAIRDELQAYRHN
B3: D domain of SEQ ID NO: 426 (designed binder)
chain: MGSWWEFEERLWAIDYRLHALGGSEAELAAFEKEIAAFESELQAYKGKGNPEVEMLRSWAAEIRALLQAYRHN
B4: D domain of SEQ ID NO: 486 (designed binder)
chain: MGSWSFFKEELANIQVYLEALGGSEAELAWFEEDIADFEEDLQHYKGKGNPEVEALRKEAAAIRDELQAYRHN
B5: D domain of SEQ ID NO: 434 (designed binder)
chain: MGSWQEFTMRLDAIYNRLETLGGSEAELAAFEKEIAAFESELQAYKGKGNPEVEWLRQSAANIRSELQAYRHN
B6: D domain of SEQ ID NO: 466 (designed binder)
chain: MGSWNEFEDRLDAIWWRLFALGGSEAELAAFEKEIAAFESELQAYKGKGNPEVEALRVEAAFIRTMLQAYRHN
B7: D domain of SEQ ID NO: 432 (designed binder)
chain: MGSWFEFWERLDAIEWRLWALGGSEAELAAFEKEIAAFESELQAYKGKGNPEVEELRSTAADIRRYLQAYRHN
B8: D domain of SEQ ID NO: 465 (designed binder)
chain: B6 chain with N5F, E8Y, D9E, W15N, V58G, F62A, T65E, M66D
B9: D domain of SEQ ID NO: 421 (designed binder)
chain: MGSWTEFYNRLDAIDQRLWALGGSEAELAAFEKEIAAFESELQAYKGKGNPEVEMLREYAADIRTDLQAYRHN
B10: D domain of SEQ ID NO: 422 (designed binder)
chain: B9 chain with T5W, Y8I, N9W, D12E, D15E, M55V, E58S, Y59R
B11: D domain of SEQ ID NO: 424 (designed binder)
chain: B9 chain with T5S, Y8E, N9D, D12W, W19F, M55W, E58A, T65W, D66E
B12: D domain of SEQ ID NO: 428 (designed binder)
chain: B3 chain with W5V, Y16E, H19G, M55W, S58D, E62D, A65W, L66W
B13: D domain of SEQ ID NO: 429 (designed binder)
chain: MGSWVEFEERLEAIEERLFALGGSEAELAAFEKEIAAFESELQAYKGKGNPEVEWLRDDAANIRHWLQAYRHN
B14: D domain of SEQ ID NO: 423 (designed binder)
chain: MGSWSEFYDRLWAIEERLFALGGSEAELAAFEKEIAAFESELQAYKGKGNPEVEYLRYYAAEIREELQAYRHN
B15: D domain of SEQ ID NO: 427 (designed binder)
chain: B14 chain with S5W, Y8E, D9N, F19E, Y55M, Y58N, E65W
B16: D domain of SEQ ID NO: 468 (designed binder)
chain: MGSWHFFKDDLAWIKNELEALGGSEAELAMFEDDIAMFETMLQSYKGKGNPEVEALRKEAAAIRDELQAYRHN
B17: D domain of SEQ ID NO: 475 (designed binder)
chain: B16 chain with H5G, F6H, D9Q, N16D, E17T, M30F, T40M, M41E, S44D
B18: D domain of SEQ ID NO: 469 (designed binder)
chain: B16 chain with F6W, D9T, W13D, N16E, M37E, T40E, M41F, S44M
B19: D domain of SEQ ID NO: 472 (designed binder)
chain: MGSWQWFKDDLAYIKETLEALGGSEAELALFEDMIADFEFELQWYKGKGNPEVEALRKEAAAIRDELQAYRHN
B20: D domain of SEQ ID NO: 477 (designed binder)
chain: B1 chain with G5Y, Y6W, W13E, E17L, W33D, F34E, E40Q, D41E, V44E
B21: D domain of SEQ ID NO: 431 (designed binder)
chain: B14 chain with Y8E, D9H, W12E, E16S, Y55D, Y58S, Y59E, E62W, E66Q
B22: D domain of SEQ ID NO: 433 (designed binder)
chain: B7 chain with E9G, D12E, W16S, W19K, S58E, T59H, D62W, R65A
B23: D domain of SEQ ID NO: 478 (designed binder)
chain: MGSWMFFKEDLADIKWALEALGGSEAELAFFEEEIALFEQHLQQYKGKGNPEVEALRKEAAAIRDELQAYRHN
B24: D domain of SEQ ID NO: 484 (designed binder)
chain: MGSWYWFKQDLAHIKSMLEALGGSEAELAWFEEDIADFESELQEYKGKGNPEVEALRKEAAAIRDELQAYRHN
B25: D domain of SEQ ID NO: 485 (designed binder)
chain: B24 chain with Y5T, W6F, Q9W, H13D, S16A, M17N, I35L, D37G, S40A
B26: D domain of SEQ ID NO: 425 (designed binder)
chain: B14 chain with S5T, Y8W, D9E, W12N, E15D, Y55W, Y58L, E65S
B27: D domain of SEQ ID NO: 470 (designed binder)
chain: MGSWWLFKDDLAEIKYWLEALGGSEAELAFFEDDIAEFERGLQIYKGKGNPEVEALRKEAAAIRDELQAYRHN
B28: D domain of SEQ ID NO: 473 (designed binder)
chain: B19 chain with Q5I, W6L, Y13W, L30F, M34N, F40E, E41Q, W44G
B29: D domain of SEQ ID NO: 481 (designed binder)
chain: B27 chain with W5T, L6F, D9N, Y16D, F30D, D33W, R40Y, G41S, I44E
B30: D domain of SEQ ID NO: 482 (designed binder)
chain: B27 chain with W5T, L6Y, E13D, Y16Q, D33I, D34E, R40E, G41E, I44E
B31: D domain of SEQ ID NO: 471 (designed binder)
chain: B27 chain with W5Y, L6E, Y16E, D33L, E37D, R40W, G41L, I44L
B32: D domain of SEQ ID NO: 479 (designed binder)
chain: B23 chain with M5T, D13G, A17E, F30W, E33D, Q40E, H41E, Q44E
B33: D domain of SEQ ID NO: 483 (designed binder)
chain: B23 chain with M5T, F6V, E9Y, A17W, F30D, L37E, Q40E, H41E, Q44E
B34: D domain of SEQ ID NO: 480 (designed binder)
chain: B23 chain with M5V, E9D, W16D, A17E, E33I, E34A, Q40W, H41E, Q44E
B35: D domain of SEQ ID NO: 474 (designed binder)
chain: MGSWIVFKDDLADIKRWLEALGGSEAELAMFEDEIADFEWQLQDYKGKGNPEVEALRKEAAAIRDELQAYRHN

Where a chain is given by its changes, count along the chain named.

The experiment deals with T1, CD123. Briefly: ELISA. On the set-up: unit not given here. A general note: An ELISA detects its analyte on a solid surface through an enzyme-linked reagent.
The molecule B1 yielded an ELISA_avg of 4.5.
For B2 the value was 3.7.
In the case of B3 it was 4.1; in that of B4, 3.8; in that of B5, 13.7.
In turn, B6 registered an ELISA_avg of 5.1.
The molecule B7 came in with an ELISA_avg of 3.4.
Molecule B8 returned an ELISA_avg of 3.
For the molecule B9, the ELISA_avg was found to be 3.3.
On to B10, for which the ELISA_avg stood at 4.
B11 displayed an ELISA_avg of 4.2.
For B12 the value was 4.1; for B13, 3.8.
In turn, B14 had an ELISA_avg of 17.
In turn, B15 came in with an ELISA_avg of 5.6.
As for B16, the ELISA_avg worked out at 3.2.
In the case of B17 it was 4.9; in that of B18, 3.5.
B19 displayed an ELISA_avg of 6.3.
For the molecule B20, the ELISA_avg was 10.4.
For B21 the value was 7.6.
The molecule B22 registered an ELISA_avg of 4.9.
B23: the ELISA_avg is 3.2.
B24 gave an ELISA_avg of 3.3.
In the case of B25 it was 4.8.
Consider B26, for which the ELISA_avg worked out at 4.
In the case of B27 it was 3.3; in that of B28, 6.
In the case of B29, the ELISA_avg was 3.9.
Consider B30, for which the ELISA_avg was found to be 4.6.
B31 showed an ELISA_avg of 3.8.
In turn, B32 registered an ELISA_avg of 7.
For B33 the value was 3.9; for B34, 8.8; for B35, 3.9.

For the origin of these results see patent publication US20250026849A1 (ARCELLX, published 2025).
